Earlier results in paper PMC11231610, “Fatty acid binding to the human transport proteins FABP3, FABP4, and FABP5 from a Ligand’s perspective” (The Journal of Biological Chemistry, 2024).

Target: Cgi-58 (Mus musculus) (UniProt Q9DBL9)
Assay: MST

Sequence of FABP4 (P04117 2-132): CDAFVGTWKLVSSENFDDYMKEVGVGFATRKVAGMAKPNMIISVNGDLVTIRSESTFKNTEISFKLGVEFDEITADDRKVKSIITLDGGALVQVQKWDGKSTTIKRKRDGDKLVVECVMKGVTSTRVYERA
Sequence of Cgi-58 (Mus musculus) (Q9DBL9 whole entry): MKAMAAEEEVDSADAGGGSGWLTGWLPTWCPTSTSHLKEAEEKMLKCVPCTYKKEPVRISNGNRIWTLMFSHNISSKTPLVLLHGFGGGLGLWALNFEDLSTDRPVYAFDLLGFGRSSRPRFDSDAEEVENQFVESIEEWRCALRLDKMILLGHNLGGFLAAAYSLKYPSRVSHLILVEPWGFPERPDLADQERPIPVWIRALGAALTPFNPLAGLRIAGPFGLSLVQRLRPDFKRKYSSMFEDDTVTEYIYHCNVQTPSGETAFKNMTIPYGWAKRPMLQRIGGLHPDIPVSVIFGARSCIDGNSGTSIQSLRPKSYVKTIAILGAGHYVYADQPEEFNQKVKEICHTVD

Substance: FABP4 (from UniProt P04117)
- Kd: 192 µM
